Reference: patent US20190352352A1
“And” between values parts separate entries of the source, which are not always exact repeats. Equal entries are not always repeated.

Tests used:
[1] = biological target: TGase-polymerized intact casein (CN-TG); test: casein-specific ELISA kit
[2] = biological target: native WPI digests (peptides released during simulated gastric and duodenal digestion of native WPI); test: β-lactoglobulin-specific competitive ELISA kit, time course of in vitro digestion
[3] = biological target: thermolysin-WPIH-TG polymer digest (peptides released during simulated gastric and duodenal digestion); test: as above
[4] = biological target: TG polymers of chymotryptic WPI hydrolysate (chymotryptic-WPIH-TG); test: β-lactoglobulin-specific competitive ELISA kit
[5] = biological target: chymotryptic hydrolysate of WPI (chymotryptic-WPIH); test: β-lactoglobulin-specific competitive ELISA kit
[6] = biological target: TG polymers of thermolysin WPI hydrolysate (thermolysin-WPIH-TG); test: β-lactoglobulin-specific competitive ELISA kit
[7] = biological target: TGase-polymerized native WPI (WPI-TG); test: β-lactoglobulin-specific competitive ELISA kit
[8] = biological target: thermolysin hydrolysate of WPI (thermolysin-WPIH); test: β-lactoglobulin-specific competitive ELISA kit
[9] = biological target: tryptic hydrolysate of WPI (tryptic-WPIH); test: β-lactoglobulin-specific competitive ELISA kit
[10] = biological target: repolymerized tryptic WPI hydrolysate (tryptic-WPIH-TG); test: β-lactoglobulin-specific competitive ELISA kit

Substance: antibody of the AgraQuant F.A.S.T Casein ELISA test kit (Romer Labs Inc.)
- immunoreactivity (% of casein control) (% of casein control) [1]: 70

Substance: antibody of the … β-lactoglobulin test kit (β-lactoglobulin-specific competitive ELISA kit, R-Biopharm AG)
- immunoreactivity (%) [2]: 5 to 20%
- immunoreactivity (%) [3]: 5% and < 5%
- immunoreactivity (% of native WPI control) (% of native WPI control) [4]: 44
- immunoreactivity (% of native WPI control) (% of native WPI control) [5]: 83
- immunoreactivity (% of native WPI control) (% of native WPI control) [6]: 6
- immunoreactivity (% of native WPI control) (% of native WPI control) [7]: 78
- immunoreactivity (% of native WPI control) (% of native WPI control) [8]: 18
- immunoreactivity (% of native WPI control) (% of native WPI control) [9]: 29
- immunoreactivity (% of native WPI control) (% of native WPI control) [10]: 29 to 31
